Assay results as given in US20150224191A1 (VEGENICS, published 2015).

Columns and labels:
[1] = biological target: T1, VEGF-C Monomer; test: direct binding ELISA, antigen coated as capture antigen, bound VGX-100 detected with rabbit anti-human IgG-HRP, Abs 450 nm
T1 construct: a form of m2; also called monomer form of VEGF-C
T1 chain: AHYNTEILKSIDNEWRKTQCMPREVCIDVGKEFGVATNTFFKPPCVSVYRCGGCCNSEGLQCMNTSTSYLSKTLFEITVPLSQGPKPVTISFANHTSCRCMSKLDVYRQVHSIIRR

[2] = biological target: T2, VEGF-C Dimer (Homodimer of two identical chains. The nature of the dimer linkage is not stated in the passages seen.); test: as above
T2 construct: a form of m2; also called dimer form of VEGF-C
T2 chain 1: T1 chain
T2 chain 2: T1 chain

[3] = biological target: T3, VEGF-C (human, UniProt P49767 103-227, limits assumed); test: cell-based or functional assay
T3 sequence: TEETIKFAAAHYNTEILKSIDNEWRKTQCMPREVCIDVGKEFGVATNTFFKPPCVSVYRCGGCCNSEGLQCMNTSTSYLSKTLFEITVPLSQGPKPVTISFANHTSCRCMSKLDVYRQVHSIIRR

[4] = biological target: T3, VEGF-C; test: cell-based or functional assay; remark: listed apart in the source
[5] = biological target: T3, VEGF-C; test: BiaCore (SPR); format not described

B1: VEGF-C antibody VGX-100 (antibody, human IgG1, lambda, V domains shown)
VH: EVRLLESGGGLVQPGGSLRLSCAASGFTFRPRAMAWVRQAPGKGLEWVSSISAQGASAYYADSVKGRFTISRDNSKNTLYLQMNSLRAEDTAVYYCARDLSVSGFGPWGRGTMVTVSS
VL: SYELTQPPSSSGTPGQRVTISCSGSSSNIGRHTVSWYQQVPGTAPKLLIYSDDHRPSGVPDRFSASKSGTSASLTITGLQSEDEADYYCAAWDDSLNGPWVFGGGTKLTVLG
[1]
  EC50 (read off the curve): ~1 ng/mL
[2]
  EC50 (read off the curve): ~1 ng/mL
[3]
  IC50 (read off the curve); [3H]-thymidine incorporation of BA/F3-VEGFR-3/EpoR cells as percent of ligand alone; blocked: VEGF-C binding to VEGFR-3: ~0.04 µg/mL
[4]
  IC50 (read off the curve); [3H]-thymidine incorporation of BA/F3-VEGFR-2/EpoR cells as percent of ligand alone; blocked: VEGF-C binding to VEGFR-2: ~0.03 µg/mL
[5]
  Kd: 1.8 nM
